Test results published in paper PMC4624681 (2015).
Numbering of substitutions follows the chain as printed.

T1: Zaire GP (1–320) with a His tag (Ebolavirus, Zaire strain, UniProt Q05320 33-320)
T1 chain: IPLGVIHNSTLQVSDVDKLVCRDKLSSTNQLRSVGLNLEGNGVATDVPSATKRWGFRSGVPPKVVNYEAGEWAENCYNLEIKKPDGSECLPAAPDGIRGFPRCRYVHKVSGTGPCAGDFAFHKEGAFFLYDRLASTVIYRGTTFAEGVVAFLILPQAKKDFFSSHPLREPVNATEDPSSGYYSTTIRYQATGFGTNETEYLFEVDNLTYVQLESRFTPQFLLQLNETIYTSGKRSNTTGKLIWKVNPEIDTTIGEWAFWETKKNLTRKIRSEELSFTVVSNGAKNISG

B1: T41 (CC’-FG) chimera: hTIM-4 Ig V with the CC’ and FG loops of hTIM-1 (domain or fragment)
chain: VTSETVVTEVLGHRVTLPCLYSSWSHNSNSMCWNRGSCSLFTCKEALIRTDGMRVTSRKSAKYRLQGTIPRGDVSLTILNPSESDSGVYCCRIEHRGWFNDVKINVRLNLQRASTT
B2: T41 (BC-CC’-FG) chimera: hTIM-4 Ig V with the BC, CC’ and FG loops of hTIM-1 (domain or fragment)
chain: VTSETVVTEVLGHRVTLPCLYSGAVTSMCWNRGSCSLFTCKEALIRTDGMRVTSRKSAKYRLQGTIPRGDVSLTILNPSESDSGVYCCRIEHRGWFNDVKINVRLNLQRASTT
B3: T41 (BC-CC’) chimera: hTIM-4 Ig V with the BC and CC’ loops of hTIM-1 (domain or fragment)
chain: B2 chain with H92V, R93P
B4: T14 (FG) chimera: hTIM-1 Ig V with the FG loop of hTIM-4 (domain or fragment)
chain: VKVGGEAGPSVTLPCHYSGAVTSMCWNRGSCSLFTCQNGIVWTNGTHVTYRKDTRYKLLGDLSRRDVSLTIENTAVSDSGVYCCRVEVPGWFNDMKITVSLEIVPPKV

Molecular target: T1, Zaire GP (1–320) with a His tag
Experiment: SPR

Binder	Kd
B1	208 µM
B2	72.4 µM
B3	73.2 µM
B4	57.9 µM
